Experimental data reported in patent US20240166733A1 (VERSITECH, published 2024).

What was measured:
Assay in all cases: ELISA, FABP coated on plate, HRP anti-mouse IgG detection, OD450
[1] = target: T1, human E-FABP recombinant protein (human, UniProt Q01469 1-135, limits assumed)
T1 construct: also called human epidermal-FABP
Method: (§1) The mouse or human A-FABP, E-FABP, and H-FABP recombinant proteins ([…]) were coated on 96-well plates overnight for ELISA binding assay to evaluate the reactivity and specificity of monoclonal antibodies with various FABPs. [0155] 100 μL of 6H2 (1 μg/mL) was added to the wells and incubated for 1 h at room temperature. The plates were then washed three times with phosphate-buffered saline (PBS), followed by incubation with 0.2 μg/mL HRP-conjugated-[…] H+L (Proteintech, SA00001-1, Japan) as the detection antibody at room temperature for 1 hour. After washing with PBS, TMB chromogen solution (Beyotime, P0209, China) was added for color development; 2M H₂SO₄ was added to the wells to stop the enzyme-induced color reactions; and the absorbance at 450 nm was measured with a microtiter plate reader.

[2] = target: T2, mouse H-FABP recombinant protein (mouse, UniProt P11404 1-133, limits assumed)
T2 construct: also called mouse heart-FABP
T2 sequence (P11404 whole entry): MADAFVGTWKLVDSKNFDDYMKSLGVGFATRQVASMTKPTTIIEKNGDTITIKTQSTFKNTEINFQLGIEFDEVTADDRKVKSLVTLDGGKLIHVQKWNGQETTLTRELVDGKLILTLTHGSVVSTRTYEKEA
Method: as §1

[3] = target: T3, mouse E-FABP recombinant protein (mouse, UniProt Q05816 1-135, limits assumed)
T3 construct: also called mouse epidermal-FABP
T3 sequence (looked up): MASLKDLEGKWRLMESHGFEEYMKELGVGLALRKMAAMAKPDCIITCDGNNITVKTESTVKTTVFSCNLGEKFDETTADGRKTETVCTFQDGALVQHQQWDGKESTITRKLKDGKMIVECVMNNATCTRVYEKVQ
Method: as §1

[4] = target: T4, human H-FABP recombinant protein (human, UniProt P05413 1-133, limits assumed)
T4 construct: also called human heart-FABP
T4 sequence (P05413 whole entry): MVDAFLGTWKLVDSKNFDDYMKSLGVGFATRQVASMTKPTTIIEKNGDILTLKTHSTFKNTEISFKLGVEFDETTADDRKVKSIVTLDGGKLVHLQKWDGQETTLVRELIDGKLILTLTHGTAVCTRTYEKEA
Method: as §1

Measured: binding result

T1 sequence (Q01469 whole entry): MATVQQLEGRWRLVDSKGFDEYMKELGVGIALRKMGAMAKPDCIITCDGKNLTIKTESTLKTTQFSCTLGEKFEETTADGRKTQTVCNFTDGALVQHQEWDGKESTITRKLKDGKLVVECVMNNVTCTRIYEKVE

B1: A-FABP neutralizing monoclonal antibody 6H2 (antibody, V domains shown)
VH: VKLQESGPELVKPGASVKIPCKASGYTFTDYNMDWVRQSRGKSLEWIGDINPYNGDTIYNQNFKGKATLTVDKSSTTAYLELRSLTSEDTAVYYCASGYGFWGQGTTVTVSS
VL: DIVMTQAPLSLPVSLGAQASISCRSSQSLVYINGNTYLHWYLQKPGQSPKLLIYKVSNRFSGVPDRFSGSGSGTDFTLKISRVEAEDLGVYFCSQSTHVPYTFGGGTKLEIK
notes: also called 6H2 mAb
no binding (tested: 6H2 at 1 µg/mL): all assays above
